The results in this text go back to PMC8562663.

Assay [1] has as its target membrane-bound lytic murein transglycosylase A (MltA) from Acinetobacter baumannii, N-terminally truncated (Gly23-Asn388), wild type (Acinetobacter baumannii). Kind of assay: SEC-MALS; Ni-NTA-purified protein on Superdex 200 10/300, 20 mM Tris-HCl pH 8.0, 150 mM NaCl, 0.3 ml/min, 25°C; DAWN TREOS detector; self-association. Background: Size exclusion chromatography separates by hydrodynamic size, large species first.

Assay [2] concerns the target abMltA triple mutant (D151K, Y162K or Y162W, E164K). Kind of assay: SEC-MALS. To be noted: read off a plot.

For the substance “membrane-bound lytic murein transglycosylase A (MltA) from Acinetobacter baumannii, N-terminally truncated (Gly23-Asn388), wild type (enzyme)”, the stoichiometry N (commonly a count of units in the complex or per binding partner) in assay [1] was determined as 2.
In assay [2], “membrane-bound lytic murein transglycosylase A (MltA) from Acinetobacter baumannii, N-terminally truncated (Gly23-Asn388), wild type D151K; Y162W; E164K” displayed an other: molecular mass (MALS) of 45000 Da.
